Reference: publication PMC5493759, “Neurovascular EGFL7 regulates adult neurogenesis in the subventricular zone and thereby affects olfactory perception” (Nature Communications, 2017)

How the values were obtained:
Experiment in all cases: co-IP; Flag-tagged EGFL7 co-expressed with V5-tagged Notch ECDs or Notch1-ECD deletion mutants in HEK293; lysate immunoprecipitated with Immunosorb A overnight at 4 °C; quantitative western blot (Odyssey); n=3
[1] = biological target: T1, V5-tagged Notch4 extracellular domain (UniProt P31695 21-1443); details: partners not purified
T1 construct: Notch4, extracellular domain; source: HEK293, transiently transfected, in lysate
T1 sequence (looked up): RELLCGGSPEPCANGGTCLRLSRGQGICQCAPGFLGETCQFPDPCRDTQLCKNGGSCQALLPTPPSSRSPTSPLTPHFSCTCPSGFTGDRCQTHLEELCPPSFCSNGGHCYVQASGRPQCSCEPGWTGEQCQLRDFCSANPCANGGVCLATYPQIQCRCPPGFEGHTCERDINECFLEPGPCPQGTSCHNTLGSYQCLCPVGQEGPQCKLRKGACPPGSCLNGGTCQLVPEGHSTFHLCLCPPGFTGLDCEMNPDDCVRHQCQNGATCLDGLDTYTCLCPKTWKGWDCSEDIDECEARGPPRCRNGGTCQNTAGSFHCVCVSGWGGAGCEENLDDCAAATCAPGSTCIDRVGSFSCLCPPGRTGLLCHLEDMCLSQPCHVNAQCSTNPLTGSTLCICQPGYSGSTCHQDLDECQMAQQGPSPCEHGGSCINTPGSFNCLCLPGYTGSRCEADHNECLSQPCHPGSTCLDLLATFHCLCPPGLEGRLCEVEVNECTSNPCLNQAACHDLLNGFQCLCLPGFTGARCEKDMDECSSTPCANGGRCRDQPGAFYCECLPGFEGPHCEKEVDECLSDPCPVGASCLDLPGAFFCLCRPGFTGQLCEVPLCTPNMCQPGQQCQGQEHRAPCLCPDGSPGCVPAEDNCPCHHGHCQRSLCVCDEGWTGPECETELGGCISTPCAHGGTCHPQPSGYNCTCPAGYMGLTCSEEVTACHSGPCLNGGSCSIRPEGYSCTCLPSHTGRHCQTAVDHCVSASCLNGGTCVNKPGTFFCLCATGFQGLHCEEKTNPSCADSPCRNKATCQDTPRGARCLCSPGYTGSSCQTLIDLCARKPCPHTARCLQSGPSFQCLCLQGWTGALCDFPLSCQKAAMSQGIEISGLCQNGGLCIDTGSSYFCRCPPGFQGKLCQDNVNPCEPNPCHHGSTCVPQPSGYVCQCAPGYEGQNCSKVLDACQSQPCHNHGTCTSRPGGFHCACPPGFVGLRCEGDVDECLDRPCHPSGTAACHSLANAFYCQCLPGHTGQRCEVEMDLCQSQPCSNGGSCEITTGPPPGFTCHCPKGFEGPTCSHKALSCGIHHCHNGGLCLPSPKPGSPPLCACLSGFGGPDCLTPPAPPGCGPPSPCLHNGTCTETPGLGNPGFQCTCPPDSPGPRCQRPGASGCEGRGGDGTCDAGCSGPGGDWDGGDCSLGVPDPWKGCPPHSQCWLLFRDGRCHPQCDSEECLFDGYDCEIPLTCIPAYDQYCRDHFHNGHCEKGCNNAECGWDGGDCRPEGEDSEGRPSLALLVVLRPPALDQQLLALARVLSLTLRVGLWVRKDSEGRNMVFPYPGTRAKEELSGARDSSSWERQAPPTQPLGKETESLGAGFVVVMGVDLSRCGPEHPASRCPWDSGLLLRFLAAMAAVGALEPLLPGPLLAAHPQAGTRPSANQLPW

[2] = biological target: T2, V5-tagged Notch3 extracellular domain (UniProt Q61982 40-1643); details: partners not purified
T2 construct: Notch3, extracellular domain; source: HEK293, transiently transfected, in lysate
T2 sequence (Q61982 40-1643): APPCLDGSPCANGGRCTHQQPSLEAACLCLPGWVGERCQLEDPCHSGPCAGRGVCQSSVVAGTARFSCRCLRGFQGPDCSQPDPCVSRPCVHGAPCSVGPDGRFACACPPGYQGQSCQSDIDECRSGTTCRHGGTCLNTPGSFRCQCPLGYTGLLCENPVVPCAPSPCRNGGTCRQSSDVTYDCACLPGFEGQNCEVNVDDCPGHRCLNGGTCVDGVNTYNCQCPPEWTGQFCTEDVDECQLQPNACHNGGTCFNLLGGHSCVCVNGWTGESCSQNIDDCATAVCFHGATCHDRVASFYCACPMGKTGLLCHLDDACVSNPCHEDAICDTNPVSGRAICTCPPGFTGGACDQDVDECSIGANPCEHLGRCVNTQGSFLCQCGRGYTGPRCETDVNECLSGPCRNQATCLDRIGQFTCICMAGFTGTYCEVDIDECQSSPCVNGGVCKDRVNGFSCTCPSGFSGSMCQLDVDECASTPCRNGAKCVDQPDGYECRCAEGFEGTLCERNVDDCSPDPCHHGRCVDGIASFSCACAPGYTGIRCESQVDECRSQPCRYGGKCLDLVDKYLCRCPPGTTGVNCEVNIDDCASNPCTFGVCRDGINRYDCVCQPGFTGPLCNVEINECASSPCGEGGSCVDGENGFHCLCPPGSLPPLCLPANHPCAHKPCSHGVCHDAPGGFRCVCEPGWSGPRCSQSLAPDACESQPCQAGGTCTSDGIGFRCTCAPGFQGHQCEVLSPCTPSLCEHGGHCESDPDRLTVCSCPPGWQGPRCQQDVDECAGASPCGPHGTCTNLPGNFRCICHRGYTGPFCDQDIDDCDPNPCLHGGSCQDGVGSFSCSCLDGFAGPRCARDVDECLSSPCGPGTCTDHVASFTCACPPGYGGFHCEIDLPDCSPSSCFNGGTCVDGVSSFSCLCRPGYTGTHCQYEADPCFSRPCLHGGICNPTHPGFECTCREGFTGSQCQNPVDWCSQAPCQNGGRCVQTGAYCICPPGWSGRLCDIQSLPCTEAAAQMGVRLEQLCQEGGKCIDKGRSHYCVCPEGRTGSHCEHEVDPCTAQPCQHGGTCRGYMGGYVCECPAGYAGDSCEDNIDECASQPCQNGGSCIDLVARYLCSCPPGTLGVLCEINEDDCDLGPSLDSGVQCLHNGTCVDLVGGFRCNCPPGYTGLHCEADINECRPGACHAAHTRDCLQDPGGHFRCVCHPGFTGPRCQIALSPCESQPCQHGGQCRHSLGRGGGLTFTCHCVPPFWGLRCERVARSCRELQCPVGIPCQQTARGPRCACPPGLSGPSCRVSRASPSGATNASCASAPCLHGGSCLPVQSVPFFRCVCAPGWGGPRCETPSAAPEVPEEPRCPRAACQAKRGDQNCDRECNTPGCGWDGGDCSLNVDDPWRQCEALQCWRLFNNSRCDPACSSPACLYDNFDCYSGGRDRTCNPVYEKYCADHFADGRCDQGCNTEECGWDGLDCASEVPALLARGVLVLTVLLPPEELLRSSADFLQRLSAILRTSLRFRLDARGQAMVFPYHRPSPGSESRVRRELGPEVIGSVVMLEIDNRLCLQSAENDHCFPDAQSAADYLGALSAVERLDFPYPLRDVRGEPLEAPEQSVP

[3] = biological target: T3, V5-tagged Notch2 extracellular domain (UniProt O35516 26-1679); details: partners not purified
T3 construct: Notch2, extracellular domain; source: HEK293, transiently transfected, in lysate
T3 sequence (O35516 26-1679): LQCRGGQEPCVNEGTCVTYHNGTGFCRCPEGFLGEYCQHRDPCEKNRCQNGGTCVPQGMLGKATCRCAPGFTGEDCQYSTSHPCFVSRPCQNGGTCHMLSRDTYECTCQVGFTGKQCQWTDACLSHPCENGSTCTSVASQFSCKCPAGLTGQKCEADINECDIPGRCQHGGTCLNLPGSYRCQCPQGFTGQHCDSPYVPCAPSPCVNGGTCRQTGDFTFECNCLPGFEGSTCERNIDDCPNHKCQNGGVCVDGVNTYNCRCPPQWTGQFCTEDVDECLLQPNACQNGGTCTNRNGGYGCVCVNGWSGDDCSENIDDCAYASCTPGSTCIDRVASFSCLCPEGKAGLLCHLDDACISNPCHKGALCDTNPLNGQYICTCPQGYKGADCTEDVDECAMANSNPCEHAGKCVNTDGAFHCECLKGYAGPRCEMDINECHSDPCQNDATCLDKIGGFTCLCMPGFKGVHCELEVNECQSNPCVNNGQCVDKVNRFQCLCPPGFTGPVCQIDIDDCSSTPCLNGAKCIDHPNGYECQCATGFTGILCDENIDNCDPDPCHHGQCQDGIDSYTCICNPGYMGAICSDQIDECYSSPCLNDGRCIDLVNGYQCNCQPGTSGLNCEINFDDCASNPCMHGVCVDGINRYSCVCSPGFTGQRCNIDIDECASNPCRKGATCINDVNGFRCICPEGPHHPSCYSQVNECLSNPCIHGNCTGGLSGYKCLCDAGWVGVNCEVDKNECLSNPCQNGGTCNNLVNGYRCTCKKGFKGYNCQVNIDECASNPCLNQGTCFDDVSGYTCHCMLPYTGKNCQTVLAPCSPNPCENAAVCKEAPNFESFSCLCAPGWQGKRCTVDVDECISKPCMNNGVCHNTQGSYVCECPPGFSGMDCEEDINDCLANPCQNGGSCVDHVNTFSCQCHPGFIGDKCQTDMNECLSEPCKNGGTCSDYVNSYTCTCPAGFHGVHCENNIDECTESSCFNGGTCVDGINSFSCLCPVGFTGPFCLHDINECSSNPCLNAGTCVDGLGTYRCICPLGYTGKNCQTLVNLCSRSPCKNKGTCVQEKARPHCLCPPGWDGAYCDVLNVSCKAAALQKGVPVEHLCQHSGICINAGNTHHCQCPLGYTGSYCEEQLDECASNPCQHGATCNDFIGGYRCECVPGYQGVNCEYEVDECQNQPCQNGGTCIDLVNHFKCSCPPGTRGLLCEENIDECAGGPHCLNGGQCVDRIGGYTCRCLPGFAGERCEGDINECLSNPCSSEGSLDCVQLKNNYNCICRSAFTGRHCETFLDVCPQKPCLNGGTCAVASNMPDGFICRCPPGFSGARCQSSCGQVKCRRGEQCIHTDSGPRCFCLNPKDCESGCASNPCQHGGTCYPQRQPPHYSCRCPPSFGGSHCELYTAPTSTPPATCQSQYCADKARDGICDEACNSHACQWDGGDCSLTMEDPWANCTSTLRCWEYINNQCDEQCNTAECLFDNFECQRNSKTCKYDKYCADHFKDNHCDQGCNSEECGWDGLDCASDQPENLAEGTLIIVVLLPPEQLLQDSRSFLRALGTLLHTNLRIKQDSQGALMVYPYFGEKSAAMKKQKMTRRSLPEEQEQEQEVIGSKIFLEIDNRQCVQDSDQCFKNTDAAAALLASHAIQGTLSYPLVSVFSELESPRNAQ

[4] = biological target: V5-tagged Notch1-ECD deletion mutant Notch1-Δ8 (UniProt Q01705)
Sequence of V5-tagged Notch1-ECD deletion mutant Notch1-Δ8 (Q01705 19-1725, stated change not applied): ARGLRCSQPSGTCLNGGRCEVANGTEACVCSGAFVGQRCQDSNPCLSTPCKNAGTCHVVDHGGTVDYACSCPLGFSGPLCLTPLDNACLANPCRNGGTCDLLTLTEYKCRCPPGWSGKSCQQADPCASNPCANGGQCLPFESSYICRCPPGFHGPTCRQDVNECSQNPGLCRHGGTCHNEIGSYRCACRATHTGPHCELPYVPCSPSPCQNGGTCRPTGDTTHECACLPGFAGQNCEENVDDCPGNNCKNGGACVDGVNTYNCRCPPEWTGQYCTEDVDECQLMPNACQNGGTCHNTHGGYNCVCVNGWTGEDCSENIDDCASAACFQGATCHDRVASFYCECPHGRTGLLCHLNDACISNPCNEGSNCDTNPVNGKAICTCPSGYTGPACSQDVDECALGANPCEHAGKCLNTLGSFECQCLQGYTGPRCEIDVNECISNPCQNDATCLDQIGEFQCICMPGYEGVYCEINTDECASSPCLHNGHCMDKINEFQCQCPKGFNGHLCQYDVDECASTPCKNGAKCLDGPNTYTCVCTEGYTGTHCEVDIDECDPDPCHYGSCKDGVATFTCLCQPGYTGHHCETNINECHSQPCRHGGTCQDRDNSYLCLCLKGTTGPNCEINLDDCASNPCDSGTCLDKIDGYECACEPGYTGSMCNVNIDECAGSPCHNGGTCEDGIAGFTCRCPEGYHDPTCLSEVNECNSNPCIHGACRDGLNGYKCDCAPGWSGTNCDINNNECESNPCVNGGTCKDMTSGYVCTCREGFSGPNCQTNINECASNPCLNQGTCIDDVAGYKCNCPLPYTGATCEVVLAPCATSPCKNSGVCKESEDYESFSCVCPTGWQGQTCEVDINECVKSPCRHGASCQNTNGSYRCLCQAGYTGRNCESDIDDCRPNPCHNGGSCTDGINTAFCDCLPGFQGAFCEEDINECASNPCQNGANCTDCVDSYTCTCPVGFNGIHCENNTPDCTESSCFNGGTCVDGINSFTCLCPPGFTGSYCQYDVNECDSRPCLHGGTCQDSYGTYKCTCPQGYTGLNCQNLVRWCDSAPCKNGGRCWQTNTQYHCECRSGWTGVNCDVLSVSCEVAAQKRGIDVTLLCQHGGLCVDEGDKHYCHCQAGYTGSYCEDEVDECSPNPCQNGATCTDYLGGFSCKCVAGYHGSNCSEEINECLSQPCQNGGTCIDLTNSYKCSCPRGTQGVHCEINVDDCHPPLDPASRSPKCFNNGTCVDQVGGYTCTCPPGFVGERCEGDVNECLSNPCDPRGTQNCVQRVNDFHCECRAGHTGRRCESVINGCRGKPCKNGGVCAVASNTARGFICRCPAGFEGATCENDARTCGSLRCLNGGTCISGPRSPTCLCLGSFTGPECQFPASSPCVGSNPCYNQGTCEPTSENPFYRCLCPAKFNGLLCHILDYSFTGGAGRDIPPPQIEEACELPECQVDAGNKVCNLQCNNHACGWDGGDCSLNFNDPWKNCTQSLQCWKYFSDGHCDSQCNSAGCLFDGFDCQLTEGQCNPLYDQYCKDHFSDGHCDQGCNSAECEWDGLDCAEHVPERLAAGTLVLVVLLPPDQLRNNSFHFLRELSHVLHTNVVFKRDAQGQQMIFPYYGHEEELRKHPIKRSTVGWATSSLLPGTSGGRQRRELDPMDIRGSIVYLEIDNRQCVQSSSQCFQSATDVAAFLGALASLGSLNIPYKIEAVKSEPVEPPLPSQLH

[5] = biological target: V5-tagged Notch1-ECD deletion mutant Notch1-Δ11+12 (UniProt Q01705)
Sequence of V5-tagged Notch1-ECD deletion mutant Notch1-Δ11+12 (Q01705 19-1725, stated change not applied): as above

[6] = biological target: V5-tagged Notch1-ECD deletion mutant Notch1-Δ5–10 (UniProt Q01705)
Sequence of V5-tagged Notch1-ECD deletion mutant Notch1-Δ5–10 (Q01705 19-1725, stated change not applied): as above

binding relative to Notch1-ECD [1]: ~35%
binding relative to Notch1-ECD [2]: ~41%
binding relative to Notch1-ECD [3]: ~76%
change in binding relative to Notch1-ECD [4]: -28%
change in binding relative to Notch1-ECD [5]: -26%
change in binding relative to Notch1-ECD [6]: -18%
B1: Flag-tagged EGFL7 (epidermal growth factor-like protein 7) (natural protein, UniProt Q9QXT5 22-275, looked up)
chain: EHVYRPSRRVCTVGISGGSISETFVQRVYQPYLTTCDGHRACSTYRTIYRTAYRRSPGVTPARPRYACCPGWKRTSGLPGACGAAICQPPCGNGGSCIRPGHCRCPVGWQGDTCQTDVDECSTGEASCPQRCVNTVGSYWCQGWEGQSPSADGTRCLSKEGPSPVAPNPTAGVDSMAREEVYRLQARVDVLEQKLQLVLAPLHSLASRSTEHGLQDPGSLLAHSFQQLDRIDSLSEQVSFLEEHLGSCSCKKDL
notes: epidermal growth factor-like protein 7 (EGFL7); the same molecule is used here; source: HEK293, transiently transfected, in lysate
